Test results reported in US20260209350A1 (Alector, published 2026).
Positions count from the first letter of the chain named.

T1: mouse TREM2 on cells (mouse, UniProt Q99NH8 19-227)
T1 construct: whole, on cells; Used for the recombinant protein on BWZ/BW cells (with mouse DAP12) and for the native protein on mouse macrophages and dendritic cells; the cell type stands under assay; also called mTREM2; mTrem2
T1 sequence (looked up): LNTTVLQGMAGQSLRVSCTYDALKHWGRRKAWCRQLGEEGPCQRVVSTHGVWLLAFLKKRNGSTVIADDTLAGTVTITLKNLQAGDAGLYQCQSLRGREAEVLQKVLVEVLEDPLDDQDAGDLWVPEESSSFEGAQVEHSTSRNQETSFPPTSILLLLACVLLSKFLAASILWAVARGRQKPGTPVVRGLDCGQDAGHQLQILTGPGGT

T2: human TREM2 Fc fusion protein (human, UniProt Q9NZC2 19-174)
T2 construct: also called hTREM2-Fc; not shown: Fc part not specified
T2 sequence: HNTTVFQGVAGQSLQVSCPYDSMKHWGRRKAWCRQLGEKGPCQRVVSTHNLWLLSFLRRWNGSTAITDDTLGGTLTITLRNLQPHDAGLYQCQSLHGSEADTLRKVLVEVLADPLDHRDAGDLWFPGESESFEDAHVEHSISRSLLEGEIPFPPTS

T3: mouse TREM2 Fc fusion protein (mouse, UniProt Q99NH8 19-171)
T3 construct: also called mTREM2-Fc; not shown: Fc part not specified
T3 sequence (looked up): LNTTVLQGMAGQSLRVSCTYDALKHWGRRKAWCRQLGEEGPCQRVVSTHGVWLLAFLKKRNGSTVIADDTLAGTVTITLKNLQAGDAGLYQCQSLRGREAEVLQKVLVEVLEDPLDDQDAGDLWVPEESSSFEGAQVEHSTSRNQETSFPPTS

T4: human monomeric His tagged TREM2 protein (human, UniProt Q9NZC2 19-174)
T4 construct: also called hTREM2-HIS
T4 sequence: T2 sequence

B1: Ab50 (antibody, human IgG1, V domains shown)
VH: QVQLVQSGAEVKKPGASVKVSCKASGYTFTSYYIHWVRQAPGQGLEWMGIINPSGGSTSYAQKFQGRVTMTRDTSTSTVYMELSSLRSEDTAVYYCARAPQESPYVFDIWGQGTMVTVSS
VL: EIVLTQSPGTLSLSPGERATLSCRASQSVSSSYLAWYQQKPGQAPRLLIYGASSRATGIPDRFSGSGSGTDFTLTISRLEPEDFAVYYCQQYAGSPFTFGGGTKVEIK
notes: human IgG1
B2: Ab5 (antibody, human IgG1, V domains shown)
VH: B1 VH
VL: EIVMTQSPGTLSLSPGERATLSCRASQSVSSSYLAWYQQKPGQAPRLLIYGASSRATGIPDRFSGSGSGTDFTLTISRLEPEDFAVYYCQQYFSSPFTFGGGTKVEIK
notes: human IgG1
B3: Ab53 (antibody, human IgG1, V domains shown)
VH: B1 VH
VL: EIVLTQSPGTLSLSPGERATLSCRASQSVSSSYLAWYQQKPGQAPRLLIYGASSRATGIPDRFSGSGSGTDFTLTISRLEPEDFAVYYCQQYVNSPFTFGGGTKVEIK
notes: human IgG1
B4: Ab71 (antibody, human IgG1, V domains shown)
VH: QVQLVQSGAEVKKPGASVKVSCKASGYTFTSYYMHWVRQAPGQGLEWMGIINPSGGSTSYAQKFQGRVTMTRDTSTSTVYMELSSLRSEDTAVYYCARDISTHDYDLAFDIWGQGTMVTVSS
VL: EIVMTQSPGTLSLSPGERATLSCRASQSVSSSYLAWYQQKPGQAPRLLIYGASNRATGIPDRFSGSGSGTDFTLTISRLEPEDFAVYYCQQAGSHPFTFGGGTKVEIK
notes: human IgG1
B5: Ab16 (antibody, human IgG1, V domains shown)
VH: QLQLQESGPGLVKPSETLSLTCTVSGGSISSNSYYWGWIRQPPGKGLEWIGSIYYSGSTYYNPSLKSRVTISVDTSKNQFSLKLSSVTAADTAVYYCARGVLGYGVFDYWGQGTLVTVSS
VL: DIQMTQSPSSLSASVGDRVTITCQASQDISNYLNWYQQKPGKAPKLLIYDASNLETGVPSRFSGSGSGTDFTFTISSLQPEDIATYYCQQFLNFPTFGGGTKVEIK
notes: human IgG1
B6: Ab17 (antibody, human IgG1, V domains shown)
VH: B5 VH
VL: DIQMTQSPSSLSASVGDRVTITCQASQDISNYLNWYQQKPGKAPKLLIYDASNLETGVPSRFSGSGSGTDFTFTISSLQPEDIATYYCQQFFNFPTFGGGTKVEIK
notes: human IgG1
B7: Ab15 (antibody, human IgG1, V domains shown)
VH: QVQLQESGPGLVKPSQTLSLTCTVSGGSISSGGYYWSWIRQHPGKGLEWIGNIYYSGSTVYNPSLKSRVTISVDTSKNQFSLKLSSVTAADTAVYYCARGLYGYGVLDVWGQGTMVTVSS
VL: DIQMTQSPSSLSASVGDRVTITCQASQDISNYLNWYQQKPGKAPKLLIYDASNLETGVPSRFSGSGSGTDFTFTISSLQPEDIATYYCQQFDTYPTFGGGTKVEIK
notes: human IgG1
B8: Ab38 (antibody, human IgG1, V domains shown)
VH: QVQLVESGGGVVQPGRSLRLSCAASGFTFSTYGMHWVRQAPGKGLEWVAVIWYDGSNKYYADSVKGRFTISRDNSKNTLYLQMNSLRAEDTAVYYCARGAPVDYGGIEPEYFQHWGQGTLVTVSS
VL: EIVLTQSPATLSLSPGERATLSCRASQSVSSYLAWYQQKPGQAPRLLIYDASNRATGIPARFSGSGSGTDFTLTISSLEPEDFAVYYCQQIDFLPYTFGGGTKVEIK
notes: human IgG1
B9: Ab55 (antibody, human IgG1, V domains shown)
VH: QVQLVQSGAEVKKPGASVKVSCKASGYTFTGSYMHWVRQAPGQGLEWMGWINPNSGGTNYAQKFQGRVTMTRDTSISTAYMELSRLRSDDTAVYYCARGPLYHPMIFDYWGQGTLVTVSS
VL: B8 VL with I91L, D92S, F93T, L94Y, Y96L
notes: human IgG1
B10: Ab57 (antibody, human IgG1, V domains shown)
VH: QVQLVQSGAEVKKPGASVKVSCKASGYTFTNYGISWVRQAPGQGLEWMGWISAYNGNTNYAQKLQGRVTMTTDTSTSTAYMELRSLRSDDTAVYYCARGPTKAYYGSGSYVVFDPWGQGTLVTVSS
VL: B8 VL with N53K, I91V, D92S, F93L, L94F, Y96L
notes: human IgG1
B11: Ab66 (antibody, human IgG1, V domains shown)
VH: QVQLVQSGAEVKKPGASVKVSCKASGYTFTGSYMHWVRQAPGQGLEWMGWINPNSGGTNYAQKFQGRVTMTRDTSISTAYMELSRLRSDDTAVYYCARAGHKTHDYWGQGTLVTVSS
VL: B8 VL with A9G, I91R, D92S, F93A, L94Y, Y96I
notes: human IgG1
B12: Ab68 (antibody, human IgG1, V domains shown)
VH: QVQLVESGGGVVQPGRSLRLSCAASGFTFSSYGMHWVRQAPGKGLEWVALIWYDGSNKYYADSVKGRFTISRDNSKNTLYLQMNSLRAEDTAVYYCAKPGSMTDYWGQGTLVTVSS
VL: B8 VL with I91R, D92A, F93N, L94Y, Y96I
notes: human IgG1
B13: Ab48 (antibody, human IgG1, V domains shown)
VH: QVQLVQSGAEVKKPGASVKVSCKASGYTFTSYYMHWVRQAPGQGLEWMGIINPSGGSTTYAQKFQGRVTMTRDTSTSTVYMELSSLRSEDTAVYYCARPGKSMDVWGQGTTVTVSS
VL: B8 VL with I91R, D92A, F93A, L94Y, Y96I
notes: human IgG1
B14: Ab46 (antibody, human IgG1, V domains shown)
VH: B13 VH with T59S, G100A, S102T, M103A, V105Y, T111L
VL: B8 VL with A51S, I91R, D92S, F93N, L94Y, Y96I
notes: human IgG1
B15: Ab67 (antibody, human IgG1, V domains shown)
VH: B13 VH
VL: B8 VL with I91R, D92S, F93H, L94F, Y96I
notes: human IgG1
B16: Ab49 (antibody, human IgG1, V domains shown)
VH: B13 VH with T59S, G100A, S102T, M103A, V105Y, T111L
VL: B8 VL with N53K, I91R, D92T, F93S, L94H, Y96I
notes: human IgG1
B17: Ab47 (antibody, human IgG1, V domains shown)
VH: B13 VH
VL: B8 VL with A9G, I91R, D92I, F93L, L94Y, Y96I
notes: human IgG1
B18: Ab69 (antibody, human IgG1, V domains shown)
VH: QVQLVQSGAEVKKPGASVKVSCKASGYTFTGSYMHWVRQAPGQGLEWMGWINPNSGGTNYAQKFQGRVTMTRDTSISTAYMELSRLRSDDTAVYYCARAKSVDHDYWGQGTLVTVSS
VL: B8 VL with I91R, D92A, F93D, L94Y, Y96I
notes: human IgG1
B19: Ab40 (antibody, human IgG1, V domains shown)
VH: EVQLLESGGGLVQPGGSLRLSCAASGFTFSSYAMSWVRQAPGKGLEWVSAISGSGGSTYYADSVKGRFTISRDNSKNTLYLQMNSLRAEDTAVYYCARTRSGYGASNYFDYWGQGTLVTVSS
VL: DIQMTQSPSSLSASVGDRVTITCRASQSISSYLNWYQQKPGKAPKLLIYAASSLQSGVPSRFSGSGSGTDFTLTISSLQPEDFATYYCQQGYAAPITFGGGTKVEIK
notes: human IgG1
B20: Ab63 (antibody, human IgG1, V domains shown)
VH: QVQLVQSGAEVKKPGASVKVSCKASGYTFTSYGISWVRQAPGQGLEWMGWISTYNGNTNYAQKLQGRVTMTTDTSTSTAYMELRSLRSDDTAVYYCARGSGSGYDSWYDWGQGTLVTVSS
VL: B19 VL with L11V, S28G, S30D, Y32W, N34A, G91A, A93S, A94L, I96P
notes: human IgG1
B21: Ab84 (antibody, human IgG1, V domains shown)
VH: B20 VH
VL: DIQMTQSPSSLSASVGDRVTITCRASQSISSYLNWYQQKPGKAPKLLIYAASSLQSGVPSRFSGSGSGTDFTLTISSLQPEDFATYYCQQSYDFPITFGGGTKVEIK
notes: human IgG1
B22: Ab58 (antibody, human IgG1, V domains shown)
VH: EVQLVQSGAEVKKPGESLKISCKGSGYSFTSYWIGWVRQMPGKGLEWMGIIYPGDSDTRYSPSFQGQVTISADKSISTAYLQWSSLKASDTAMYYCARLGIYSTGATAFDIWGQGTMVTVSS
VL: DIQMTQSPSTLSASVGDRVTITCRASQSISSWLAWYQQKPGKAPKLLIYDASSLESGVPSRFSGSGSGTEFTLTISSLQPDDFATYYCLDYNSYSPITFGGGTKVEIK
notes: human IgG1
B23: Ab36 (antibody, human IgG1, V domains shown)
VH: QVQLVESGGGVVQPGRSLRLSCAASGFTFSTYGMHWVRQAPGKGLEWVAVIWYDGSNKYYADSVKGRFTISRDNSKNTLYLQMNSLRAEDTAVYYCARGTGAAAASPAFDIWGQGTMVTVSS
VL: EIVLTQSPATLSLSPGERATLSCRASQSVSSYLAWYQQKPGQAPRLLIYDASNRATGIPARFSGSGSGTDFTLTISSLEPEDFAVYYCQQLFDWPTFGGGTKVEIK
notes: human IgG1
B24: Ab44 (antibody, human IgG1, V domains shown)
VH: B23 VH
VL: B23 VL with L4M, A51S, F92V, D93H
notes: human IgG1

What was measured:
mouse TREM2 on cells = biological target: T1, mouse TREM2 on cells; experiment: FACS, mTrem2 cells
[1] = biological target: T2, human TREM2 Fc fusion protein; experiment: ForteBio or MSD-SET, avid
[2] = biological target: T3, mouse TREM2 Fc fusion protein; experiment: ForteBio or MSD-SET, avid
[3] = biological target: T4, human monomeric His tagged TREM2 protein; experiment: ForteBio or MSD-SET, monovalent

Row | Binder | MFI (mouse TREM2 on cells) | Kd [1] | binding result [2] | Kd [3] | Kd [2]
1 | B1 | 325 MFI | 0.729 nM | no binding | 36.4 nM | –
2 | B2 | 310 MFI | 0.697 nM | no binding | 30 nM | –
3 | B3 | 843 MFI | 0.635 nM | no binding | 21.6 nM | –
4 | B4 | 804 MFI | 2.77 nM | no binding | 64.7 nM | –
5 | B5 | 6380 MFI | 1.09 nM | – | 2.47 nM | 1.36 nM
6 | B6 | 10300 MFI | 0.792 nM | – | 3.46 nM | 1.67 nM
7 | B7 | 4760 MFI | 0.605 nM | – | 3.03 nM | 2.8 nM
8 | B8 | 297 MFI | 0.96 nM | no binding | 13.1 nM | –
9 | B9 | 6220 MFI | 2.22 nM | – | 91.7 nM | 1.17 nM
10 | B10 | 10200 MFI | 0.436 nM | – | 18.3 nM | 0.598 nM
11 | B11 | 4100 MFI | 1.98 nM | – | 60.7 nM | 3.88 nM
12 | B12 | 2100 MFI | 6.68 nM | – | 109 nM | 3.26 nM
13 | B13 | 9770 MFI | 0.35 nM | – | 9.08 nM | 1.41 nM
14 | B14 | 4260 MFI | 0.445 nM | – | 16.8 nM | 2.46 nM
15 | B15 | 6210 MFI | 0.66 nM | – | 34.5 nM | 2.92 nM
16 | B16 | 4320 MFI | 0.435 nM | – | 17.4 nM | 2.08 nM
17 | B17 | 10100 MFI | 0.431 nM | – | 7.37 nM | 1.45 nM
18 | B18 | 629 MFI | 3.75 nM | – | 59.7 nM | 3.4 nM
19 | B19 | 577 MFI | 0.197 nM | – | 7.97 nM | 6.03 nM
20 | B20 | 1720 MFI | 1.13 nM | no binding | 49.6 nM | –
21 | B21 | 799 MFI | 1.16 nM | no binding | 60.4 nM | –
22 | B22 | 1870 MFI | 0.575 nM | no binding | 2.73 nM | –
23 | B23 | 1260 MFI | 0.465 nM | no binding | 4.01 nM | –
24 | B24 | 1210 MFI | 0.562 nM | no binding | 9.46 nM | –
